Laboratory results published in patent publication US20180155451A1 (published 2018).

T1: FcγRIIb extracellular domain with C-terminal His tag (human, UniProt P31994 43-217)
T1 construct: extracellular domain; also called FcgRIIb; 2b; not shown: His tag attached to the C terminus
T1 sequence (looked up): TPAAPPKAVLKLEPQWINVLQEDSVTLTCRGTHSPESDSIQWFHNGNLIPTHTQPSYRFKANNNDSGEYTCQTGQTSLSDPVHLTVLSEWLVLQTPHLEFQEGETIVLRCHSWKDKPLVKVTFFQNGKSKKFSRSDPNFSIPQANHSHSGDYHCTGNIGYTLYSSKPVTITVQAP

B1: GpH7-A5/GpH7-B3 variant A327_15Y/GpL16-k0 (antibody, human IgG1, kappa)
heavy 1: not shown
heavy 2: not shown
light: DIVMTQSPLSLPVTPGEPASISCQASESLVHSNRNTYLHWYLQKPGQSPQLLIYKVSNRFSGVPDRFSGSGSGTDFTLKISRVEAEDVGVYYCSQNTHVPPTFGQGTKVEIERTVAAPSVFIFPPSDEQLKSGTASVVCLLNNFYPREAKVQWKVDNALQSGNSQESVTEQDSKDSTYSLSSTLTLSKADYEKHKVYACEVTHQGLSSPVTKSFNRGEC
notes: Heterodimerized IgG1; alteration in one H chain only; also called He Ab
B2: GpH7-A5/GpH7-B3 variant A327_16H/GpL16-k0 (antibody, human IgG1, kappa)
heavy 1: not shown
heavy 2: not shown
light: B1 light
notes: as for B1
B3: GpH7-A5/GpH7-B3 variant L328_02A/GpL16-k0 (antibody, human IgG1, kappa)
heavy 1: not shown
heavy 2: not shown
light: B1 light
notes: as for B1
B4: GpH7-A5/GpH7-B3 variant N325_15Y/GpL16-k0 (antibody, human IgG1, kappa)
heavy 1: not shown
heavy 2: not shown
light: B1 light
notes: as for B1
B5: GpH7-A5/GpH7-B3 variant N325_14T/GpL16-k0 (antibody, human IgG1, kappa)
heavy 1: not shown
heavy 2: not shown
light: B1 light
notes: as for B1
B6: GpH7-A5/GpH7-B3 variant K326_03V/GpL16-k0 (antibody, human IgG1, kappa)
heavy 1: not shown
heavy 2: not shown
light: B1 light
notes: as for B1
B7: GpH7-A5/GpH7-B3 variant L328_01G/GpL16-k0 (antibody, human IgG1, kappa)
heavy 1: not shown
heavy 2: not shown
light: B1 light
notes: as for B1
B8: GpH7-A5/GpH7-B3 variant K326_15Y/GpL16-k0 (antibody, human IgG1, kappa)
heavy 1: not shown
heavy 2: not shown
light: B1 light
notes: as for B1
B9: GpH7-A5/GpH7-B3 variant K326_08L/GpL16-k0 (antibody, human IgG1, kappa)
heavy 1: not shown
heavy 2: not shown
light: B1 light
notes: as for B1
B10: GpH7-A5/GpH7-B3 variant N325_03V/GpL16-k0 (antibody, human IgG1, kappa)
heavy 1: not shown
heavy 2: not shown
light: B1 light
notes: as for B1
B11: GpH7-A5/GpH7-B3 variant N325_04F/GpL16-k0 (antibody, human IgG1, kappa)
heavy 1: not shown
heavy 2: not shown
light: B1 light
notes: as for B1
B12: GpH7-A5/GpH7-B3 variant L328_03V/GpL16-k0 (antibody, human IgG1, kappa)
heavy 1: not shown
heavy 2: not shown
light: B1 light
notes: as for B1
B13: GpH7-A5/GpH7-B3 variant K326_20W/GpL16-k0 (antibody, human IgG1, kappa)
heavy 1: not shown
heavy 2: not shown
light: B1 light
notes: as for B1
B14: GpH7-A5/GpH7-B3 variant N325_20W/GpL16-k0 (antibody, human IgG1, kappa)
heavy 1: not shown
heavy 2: not shown
light: B1 light
notes: as for B1
B15: GpH7-A5/GpH7-B3 variant N325_10E/GpL16-k0 (antibody, human IgG1, kappa)
heavy 1: not shown
heavy 2: not shown
light: B1 light
notes: as for B1
B16: GpH7-A5/GpH7-B3 variant N325_08L/GpL16-k0 (antibody, human IgG1, kappa)
heavy 1: not shown
heavy 2: not shown
light: B1 light
notes: as for B1
B17: GpH7-A5/GpH7-B3 variant K326_04F/GpL16-k0 (antibody, human IgG1, kappa)
heavy 1: not shown
heavy 2: not shown
light: B1 light
notes: as for B1
B18: GpH7-A5/GpH7-B3 variant N325_05P/GpL16-k0 (antibody, human IgG1, kappa)
heavy 1: not shown
heavy 2: not shown
light: B1 light
notes: as for B1

These binders were tested against T1, FcγRIIb extracellular domain with … (assay: SPR (Biacore), relative binding).
Procedure: (§1) Analysis of interaction between objective antibody and the FcγR was carried out using Biacore T100 (GE Healthcare). HBS-EP+ (GE Healthcare) was used as the running buffer, and the measurement temperature was set to 25° C. Chips produced by immobilizing the antigen peptide by the amine coupling method to a Series S Sencor Chip CM5 (GE Healthcare), or alternatively, chips produced by allowing preliminarily biotinylated antigen peptides to interact with and immobilize onto a Series S Sensor Chip SA (certified) (GE Healthcare) were used. Antibodies of interest were captured onto an antigen peptide-immobilized chip, and allowed to interact to each FcγR diluted with running buffer. To regenerate and repeatedly use the chip, the antibodies captured on the chip were washed off by reacting 10 mM glycine-HCl, pH 1.5.
(§2) The FcγR-binding activity of each antibody was assessed primarily using as an indicator the FcγR-binding activity and dissociation constant for FcγR.
With B1 the “He/Con_2b (IIb binding)” value was 60.8 % of GpH7-A5/GpH7-B3/GpL16-k0 (=100).
In the case of B2, the “He/Con_2b (IIb binding)” value is reported as 63.5 % of GpH7-A5/GpH7-B3/GpL16-k0 (=100).
With B3 the “He/Con_2b (IIb binding)” value was 144 % of GpH7-A5/GpH7-B3/GpL16-k0 (=100).
For B4, the “He/Con_2b (IIb binding)” value was 99.5 % of GpH7-A5/GpH7-B3/GpL16-k0 (=100).
For B5, the “He/Con_2b (IIb binding)” value was 91.6 % of GpH7-A5/GpH7-B3/GpL16-k0 (=100).
With B6 the “He/Con_2b (IIb binding)” value was 175 % of GpH7-A5/GpH7-B3/GpL16-k0 (=100).
B7 was tested, and the “He/Con_2b (IIb binding)” value was 80.2 % of GpH7-A5/GpH7-B3/GpL16-k0 (=100).
B8 was tested, and the “He/Con_2b (IIb binding)” value was 159 % of GpH7-A5/GpH7-B3/GpL16-k0 (=100).
With B9 the “He/Con_2b (IIb binding)” value was 177 % of GpH7-A5/GpH7-B3/GpL16-k0 (=100).
In the case of B10, the “He/Con_2b (IIb binding)” value is reported as 111 % of GpH7-A5/GpH7-B3/GpL16-k0 (=100).
With B11 the “He/Con_2b (IIb binding)” value was 143 % of GpH7-A5/GpH7-B3/GpL16-k0 (=100).
For B12, the “He/Con_2b (IIb binding)” value was 126 % of GpH7-A5/GpH7-B3/GpL16-k0 (=100).
With B13 the “He/Con_2b (IIb binding)” value was 148 % of GpH7-A5/GpH7-B3/GpL16-k0 (=100).
With B14 the “He/Con_2b (IIb binding)” value was 169 % of GpH7-A5/GpH7-B3/GpL16-k0 (=100).
In the case of B15, the “He/Con_2b (IIb binding)” value is reported as 95.9 % of GpH7-A5/GpH7-B3/GpL16-k0 (=100).
B16 was tested, and the “He/Con_2b (IIb binding)” value was 197 % of GpH7-A5/GpH7-B3/GpL16-k0 (=100).
B17 was tested, and the “He/Con_2b (IIb binding)” value was 155 % of GpH7-A5/GpH7-B3/GpL16-k0 (=100).
With B18 the “He/Con_2b (IIb binding)” value was 26 % of GpH7-A5/GpH7-B3/GpL16-k0 (=100).

These binders were tested against T2, FcγRIIIa extracellular domain with C-terminal His tag (human, UniProt P08637 17-208) (assay: SPR (Biacore), relative binding).
T2 construct: extracellular domain; also called FcgRIIIa; 3a; not shown: His tag attached to the C terminus
T2 sequence (P08637 17-208): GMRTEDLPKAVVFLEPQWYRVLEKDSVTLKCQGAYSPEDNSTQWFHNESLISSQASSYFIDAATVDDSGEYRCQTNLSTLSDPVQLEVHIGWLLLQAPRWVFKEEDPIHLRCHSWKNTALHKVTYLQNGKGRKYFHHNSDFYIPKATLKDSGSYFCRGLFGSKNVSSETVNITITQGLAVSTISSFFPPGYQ
Procedure: as §1, §2
With B1 the “He/Con_3a (IIIa binding)” value was 46.8 % of GpH7-A5/GpH7-B3/GpL16-k0 (=100).
B2 was tested, and the “He/Con_3a (IIIa binding)” value was 43.7 % of GpH7-A5/GpH7-B3/GpL16-k0 (=100).
With B3 the “He/Con_3a (IIIa binding)” value was 79.1 % of GpH7-A5/GpH7-B3/GpL16-k0 (=100).
For B4, the “He/Con_3a (IIIa binding)” value was 29.5 % of GpH7-A5/GpH7-B3/GpL16-k0 (=100).
For B5, the “He/Con_3a (IIIa binding)” value was 39.4 % of GpH7-A5/GpH7-B3/GpL16-k0 (=100).
In the case of B6, the “He/Con_3a (IIIa binding)” value is reported as 122 % of GpH7-A5/GpH7-B3/GpL16-k0 (=100).
For B7, the “He/Con_3a (IIIa binding)” value was 44.9 % of GpH7-A5/GpH7-B3/GpL16-k0 (=100).
With B8 the “He/Con_3a (IIIa binding)” value was 112 % of GpH7-A5/GpH7-B3/GpL16-k0 (=100).
For B9, the “He/Con_3a (IIIa binding)” value was 114 % of GpH7-A5/GpH7-B3/GpL16-k0 (=100).
B10 was tested, and the “He/Con_3a (IIIa binding)” value was 30.3 % of GpH7-A5/GpH7-B3/GpL16-k0 (=100).
With B11 the “He/Con_3a (IIIa binding)” value was 20.7 % of GpH7-A5/GpH7-B3/GpL16-k0 (=100).
With B12 the “He/Con_3a (IIIa binding)” value was 78.7 % of GpH7-A5/GpH7-B3/GpL16-k0 (=100).
For B13, the “He/Con_3a (IIIa binding)” value was 84.8 % of GpH7-A5/GpH7-B3/GpL16-k0 (=100).
B14 was tested, and the “He/Con_3a (IIIa binding)” value was 32.8 % of GpH7-A5/GpH7-B3/GpL16-k0 (=100).
With B15 the “He/Con_3a (IIIa binding)” value was 38.2 % of GpH7-A5/GpH7-B3/GpL16-k0 (=100).
With B16 the “He/Con_3a (IIIa binding)” value was 33.3 % of GpH7-A5/GpH7-B3/GpL16-k0 (=100).
With B17 the “He/Con_3a (IIIa binding)” value was 103 % of GpH7-A5/GpH7-B3/GpL16-k0 (=100).
For B18, the “He/Con_3a (IIIa binding)” value was 10.2 % of GpH7-A5/GpH7-B3/GpL16-k0 (=100).

The binders below were run against T2, FcγRIIIa extracellular domain with … (assay: SPR (Biacore); He/Con_3a divided by He/Con_2b (reference: binding to FcγRIIb)).
Procedure: as §1, §2
With B1 the “He_3a/2b (IIIa/IIb)” value was 0.77 ratio.
In the case of B2, the “He_3a/2b (IIIa/IIb)” value is reported as 0.69 ratio.
With B3 the “He_3a/2b (IIIa/IIb)” value was 0.55 ratio.
B4 was tested, and the “He_3a/2b (IIIa/IIb)” value was 0.3 ratio.
B5 was tested, and the “He_3a/2b (IIIa/IIb)” value was 0.43 ratio.
With B6 the “He_3a/2b (IIIa/IIb)” value was 0.7 ratio.
For B7, the “He_3a/2b (IIIa/IIb)” value was 0.56 ratio.
In the case of B8, the “He_3a/2b (IIIa/IIb)” value is reported as 0.7 ratio.
B9 was tested, and the “He_3a/2b (IIIa/IIb)” value was 0.65 ratio.
In the case of B10, the “He_3a/2b (IIIa/IIb)” value is reported as 0.27 ratio.
For B11, the “He_3a/2b (IIIa/IIb)” value was 0.14 ratio.
With B12 the “He_3a/2b (IIIa/IIb)” value was 0.63 ratio.
In the case of B13, the “He_3a/2b (IIIa/IIb)” value is reported as 0.57 ratio.
For B14, the “He_3a/2b (IIIa/IIb)” value was 0.19 ratio.
B15 was tested, and the “He_3a/2b (IIIa/IIb)” value was 0.4 ratio.
B16 was tested, and the “He_3a/2b (IIIa/IIb)” value was 0.17 ratio.
With B17 the “He_3a/2b (IIIa/IIb)” value was 0.66 ratio.
In the case of B18, the “He_3a/2b (IIIa/IIb)” value is reported as 0.39 ratio.
